Common to all, as to assay: Phos-tag gel autophosphorylation, initial rates, Michaelis-Menten fit
Common to all, as to assay type: biochemical, Bacteroides thetaiotaomicron
Common to all, as to conditions: phospho-donor, 50 mM Tris pH 7.5, 100 mM NaCl, 5 mM BME, 5 mM MgSO4, 5 µM protein

Series [1] deals with NP(=O)(O)O. The text has this: Phos-tag gel autophosphorylation, initial rates, Michaelis-Menten fit on BT3334-REC | RECs have higher kcat and lower Km values than RRs
In series [2] the test system is NP(=O)(O)O. From the text:
Phos-tag gel autophosphorylation, initial rates, Michaelis-Menten fit on BT3334-RR | RECs have higher kcat and lower Km values than RRs
This is another data set of the same source.

Series [3] has as its system NP(=O)(O)O. From the text: Phos-tag gel autophosphorylation, initial rates, Michaelis-Menten fit on BT4124-REC | RECs have higher kcat and lower Km values than RRs
The source holds these as a separate data set.

In series [4] the test system is NP(=O)(O)O. The source holds these as a separate data set.
For series [5], the system named is NP(=O)(O)O. The text has this: Phos-tag gel autophosphorylation, initial rates, Michaelis-Menten fit on BT4124-RR | RECs have higher kcat and lower Km values than RRs
The source holds these as a separate data set.

Series [6] deals with NP(=O)(O)O. From the text:
Phos-tag gel autophosphorylation, initial rates, Michaelis-Menten fit on BT4663-REC | RECs have higher kcat and lower Km values than RRs
This is another data set of the same source.

Series [7] deals with NP(=O)(O)O. The text has this:
Phos-tag gel autophosphorylation, initial rates, Michaelis-Menten fit on BT4663-RR | RECs have higher kcat and lower Km values than RRs
The source holds these as a separate data set.

The text below walks through data of publication PMC11253607, “A conserved inhibitory interdomain interaction regulates DNA-binding activities of hybrid two-component systems in Bacteroides” (mBio, 2024).

As usually defined, the Km is the concentration of substrate that gives half-maximal velocity. Usually kcat stands for the maximal rate divided by the concentration of active sites. On to “BT3334-REC (Bacteroides thetaiotaomicron VPI-5482)”, for which, in the series with NP(=O)(O)O [1], the Km is on record as 4.5 ± 0.8 mM and the kcat is 0.02 ± 0.0017 s⁻¹.

With “BT3334-RR (Bacteroides thetaiotaomicron VPI-5482)”, in the series on NP(=O)(O)O [2], the Km is 7.8 ± 2.4 mM and the kcat is 0.0095 ± 0.00083 s⁻¹.

For “BT4124-REC (Bacteroides thetaiotaomicron VPI-5482)”, in the series on NP(=O)(O)O [3], the Km came to 10 ± 1 mM and the kcat turned out to be 0.0233 ± 0.0017 s⁻¹.

Regarding “BT4124-REC (Bacteroides thetaiotaomicron VPI-5482; C1262A/H1263D)”, in the series on NP(=O)(O)O [4], the Michaelis-Menten constant (Km) is listed as 13 ± 2 mM and the turnover number (kcat) turned out to be 0.0267 ± 0.0017 s⁻¹.

For “BT4124-RR (Bacteroides thetaiotaomicron VPI-5482)”, in the series on NP(=O)(O)O [5], the Km amounted to 17 ± 2 mM and the kcat is 0.00833 ± 0.0005 s⁻¹.

Turning to “BT4124-RR (Bacteroides thetaiotaomicron VPI-5482; C1262A/H1263D)”, in the series on NP(=O)(O)O [4], the Km is 8.5 ± 1.5 mM and the kcat stood at 0.02 ± 0.0017 s⁻¹.

In the case of “BT4124-RR (Bacteroides thetaiotaomicron VPI-5482; C1262A/H1263G)”, in the series on NP(=O)(O)O [4], the Km was found to be 13 ± 3 mM and the kcat came out at 0.0183 ± 0.0017 s⁻¹.

“BT4663-REC (Bacteroides thetaiotaomicron VPI-5482)”: in the series with NP(=O)(O)O [6], the Michaelis constant (Km) was 14 ± 4 mM and the catalytic constant (kcat) is 0.0135 ± 0.0017 s⁻¹.

For “BT4663-RR (Bacteroides thetaiotaomicron VPI-5482)”, in the series with NP(=O)(O)O [7], the Michaelis constant (Km) was 33 ± 6 mM and the catalytic constant (kcat) turned out to be 0.0035 ± 0.00033 s⁻¹.
